Data as given in patent EP4786492A1.
Blank lines part the entries; values can stand above or below the binder they belong to.

Legend:
[1] = biological target: mouse DLL3 on CHO-K1-mDLL3 cells (mouse) (UniProt O88516); experiment: FACS, CHO-K1-mDLL3 cells, 0.00128 nM antibody
[2] = biological target: monkey DLL3 on CHO-K1-cyno DLL3 cells (cynomolgus monkey); experiment: FACS, CHO-K1-cyno DLL3 cells, 20 nM antibody
[3] = biological target: mouse DLL3 on CHO-K1-mDLL3 cells (mouse) (UniProt O88516); experiment: FACS, CHO-K1-mDLL3 cells, 0.8 nM antibody
[4] = biological target: DLL3 endogenously expressed on NCI-H82 cells (UniProt Q9NYJ7); experiment: FACS on NCI-H82 cells; antibody 0.16 nM
DLL3 endogenously expressed on NCI-H82 cells, sequence (Q9NYJ7 27-618): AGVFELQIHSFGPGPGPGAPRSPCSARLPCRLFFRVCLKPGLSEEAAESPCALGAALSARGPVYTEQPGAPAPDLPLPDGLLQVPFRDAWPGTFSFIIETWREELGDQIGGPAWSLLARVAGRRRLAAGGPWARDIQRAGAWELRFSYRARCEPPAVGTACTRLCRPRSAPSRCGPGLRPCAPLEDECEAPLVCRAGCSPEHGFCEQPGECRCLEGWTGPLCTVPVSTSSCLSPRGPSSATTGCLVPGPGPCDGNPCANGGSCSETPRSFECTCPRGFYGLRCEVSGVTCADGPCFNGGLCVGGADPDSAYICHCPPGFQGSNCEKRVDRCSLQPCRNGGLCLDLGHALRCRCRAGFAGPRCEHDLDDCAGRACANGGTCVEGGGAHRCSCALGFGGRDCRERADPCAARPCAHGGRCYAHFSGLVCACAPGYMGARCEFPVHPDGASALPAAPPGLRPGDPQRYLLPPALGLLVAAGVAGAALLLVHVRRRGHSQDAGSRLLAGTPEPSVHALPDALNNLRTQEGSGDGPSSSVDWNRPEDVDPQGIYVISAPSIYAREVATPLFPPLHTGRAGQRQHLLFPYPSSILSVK

[5] = biological target: monkey DLL3 on CHO-K1-cyno DLL3 cells (cynomolgus monkey); experiment: FACS, CHO-K1-cyno DLL3 cells, 100 nM antibody
[6] = biological target: mouse DLL3 on CHO-K1-mDLL3 cells (mouse) (UniProt O88516); experiment: FACS, CHO-K1-mDLL3 cells, 0.032 nM antibody
[7] = biological target: monkey DLL3 on CHO-K1-cyno DLL3 cells (cynomolgus monkey); experiment: FACS, CHO-K1-cyno DLL3 cells, 0.8 nM antibody
[8] = biological target: human DLL1 protein (Acro, Cat. No. DL1-H52H8) (human) (UniProt O00548); experiment: ELISA, coated hDLL1; maximum over 0.1, 1, 10, 100 nM antibody
human DLL1 protein (Acro, Cat. No. DL1-H52H8) (human), sequence (O00548 18-540 limits assumed): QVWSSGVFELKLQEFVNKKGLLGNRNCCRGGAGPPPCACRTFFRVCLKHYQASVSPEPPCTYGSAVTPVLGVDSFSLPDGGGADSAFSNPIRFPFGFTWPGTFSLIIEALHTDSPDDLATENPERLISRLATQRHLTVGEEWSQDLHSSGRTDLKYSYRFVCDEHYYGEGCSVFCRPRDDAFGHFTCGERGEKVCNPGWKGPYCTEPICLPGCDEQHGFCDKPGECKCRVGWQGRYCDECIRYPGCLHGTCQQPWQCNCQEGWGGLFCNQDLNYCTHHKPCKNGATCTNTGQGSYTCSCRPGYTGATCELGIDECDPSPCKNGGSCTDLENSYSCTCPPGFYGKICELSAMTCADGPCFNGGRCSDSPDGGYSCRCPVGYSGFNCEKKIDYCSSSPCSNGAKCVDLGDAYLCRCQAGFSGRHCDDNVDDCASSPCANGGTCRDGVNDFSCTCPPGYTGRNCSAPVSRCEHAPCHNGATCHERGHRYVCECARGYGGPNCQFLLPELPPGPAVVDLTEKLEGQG

[9] = biological target: human DLL3 protein (extracellular segment, His tag) (human) (UniProt Q9NYJ7); experiment: SPR (Biacore 8K), antibody captured on Protein A chip, DLL3 antigen in solution, 1:1 Langmuir fit
human DLL3 protein (extracellular segment, His tag) (human), sequence (Q9NYJ7 27-492): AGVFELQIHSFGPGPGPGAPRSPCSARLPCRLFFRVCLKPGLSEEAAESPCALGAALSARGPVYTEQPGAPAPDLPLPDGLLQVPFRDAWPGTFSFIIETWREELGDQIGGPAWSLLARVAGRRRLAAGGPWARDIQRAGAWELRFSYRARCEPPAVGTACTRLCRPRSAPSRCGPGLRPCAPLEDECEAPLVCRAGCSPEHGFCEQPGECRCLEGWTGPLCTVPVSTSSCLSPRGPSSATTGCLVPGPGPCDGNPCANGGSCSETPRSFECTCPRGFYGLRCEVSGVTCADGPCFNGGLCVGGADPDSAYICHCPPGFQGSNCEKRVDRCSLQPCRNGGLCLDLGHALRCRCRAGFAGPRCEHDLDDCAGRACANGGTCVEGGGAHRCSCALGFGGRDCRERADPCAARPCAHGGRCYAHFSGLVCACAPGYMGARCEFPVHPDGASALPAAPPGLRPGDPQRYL

[10] = biological target: mouse DLL3 on CHO-K1-mDLL3 cells (mouse) (UniProt O88516); experiment: FACS, CHO-K1-mDLL3 cells, 20 nM antibody
[11] = biological target: DLL3 endogenously expressed on NCI-H82 cells (UniProt Q9NYJ7); experiment: FACS on NCI-H82 cells; antibody 0.00128 nM
[12] = biological target: mouse DLL3 on CHO-K1-mDLL3 cells (mouse) (UniProt O88516); experiment: FACS, CHO-K1-mDLL3 cells, 100 nM antibody
[13] = biological target: DLL3 endogenously expressed on NCI-H82 cells (UniProt Q9NYJ7); experiment: FACS on NCI-H82 cells; antibody 0.8 nM
[14] = biological target: monkey DLL3 on CHO-K1-cyno DLL3 cells (cynomolgus monkey); experiment: FACS, CHO-K1-cyno DLL3 cells, 0.16 nM antibody
[15] = biological target: DLL3 endogenously expressed on NCI-H82 cells (UniProt Q9NYJ7); experiment: FACS on NCI-H82 cells; antibody 0.032 nM
[16] = biological target: DLL3 endogenously expressed on NCI-H82 cells (UniProt Q9NYJ7); experiment: FACS on NCI-H82 cells; antibody 4 nM
[17] = biological target: monkey DLL3 on CHO-K1-cyno DLL3 cells (cynomolgus monkey); experiment: FACS, CHO-K1-cyno DLL3 cells, 0.00128 nM antibody
[18] = biological target: human DLL4 protein (Acro, Cat. No. DL4-H5227) (human) (UniProt Q9NR61); experiment: ELISA, coated hDLL4; maximum over 0.1, 1, 10, 100 nM antibody
human DLL4 protein (Acro, Cat. No. DL4-H5227) (human), sequence (Q9NR61 27-524 limits assumed): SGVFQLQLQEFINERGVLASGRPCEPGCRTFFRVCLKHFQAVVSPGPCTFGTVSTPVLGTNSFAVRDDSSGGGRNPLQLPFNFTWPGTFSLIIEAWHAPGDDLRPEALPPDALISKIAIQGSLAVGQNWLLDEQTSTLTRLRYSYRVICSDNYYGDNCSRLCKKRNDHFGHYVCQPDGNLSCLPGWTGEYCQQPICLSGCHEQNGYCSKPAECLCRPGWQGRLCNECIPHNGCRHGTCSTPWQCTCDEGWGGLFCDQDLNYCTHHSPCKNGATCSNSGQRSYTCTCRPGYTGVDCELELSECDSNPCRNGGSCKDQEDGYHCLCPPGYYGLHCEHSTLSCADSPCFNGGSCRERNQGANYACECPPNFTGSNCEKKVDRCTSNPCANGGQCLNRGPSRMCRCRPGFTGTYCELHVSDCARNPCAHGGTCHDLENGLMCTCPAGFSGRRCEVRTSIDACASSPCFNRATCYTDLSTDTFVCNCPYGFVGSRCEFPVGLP

[19] = biological target: monkey DLL3 on CHO-K1-cyno DLL3 cells (cynomolgus monkey); experiment: FACS, CHO-K1-cyno DLL3 cells, 4 nM antibody
[20] = biological target: mouse DLL3 on CHO-K1-mDLL3 cells (mouse) (UniProt O88516); experiment: FACS, CHO-K1-mDLL3 cells, 0.16 nM antibody
[21] = biological target: monkey DLL3 on CHO-K1-cyno DLL3 cells (cynomolgus monkey); experiment: FACS, CHO-K1-cyno DLL3 cells, 0.0064 nM antibody
[22] = biological target: DLL3 endogenously expressed on NCI-H82 cells (UniProt Q9NYJ7); experiment: FACS on NCI-H82 cells; antibody 20 nM
[23] = biological target: mouse DLL3 on CHO-K1-mDLL3 cells (mouse) (UniProt O88516); experiment: FACS, CHO-K1-mDLL3 cells, 4 nM antibody
[24] = biological target: DLL3 endogenously expressed on NCI-H82 cells (UniProt Q9NYJ7); experiment: FACS on NCI-H82 cells; antibody 100 nM
[25] = biological target: monkey DLL3 on CHO-K1-cyno DLL3 cells (cynomolgus monkey); experiment: FACS, CHO-K1-cyno DLL3 cells, 0.032 nM antibody
[26] = biological target: DLL3 endogenously expressed on NCI-H82 cells (UniProt Q9NYJ7); experiment: FACS on NCI-H82 cells; antibody 0.0064 nM
[27] = biological target: mouse DLL3 on CHO-K1-mDLL3 cells (mouse) (UniProt O88516); experiment: FACS, CHO-K1-mDLL3 cells, 0.0064 nM antibody
[28] = biological target: human DLL3 protein expressed on CHO-K1 recombinant cells (human DLL3 extracellular segment fused to EpCAM transmembrane and intracellular regions) (human) (UniProt Q9NYJ7); experiment: FACS, CHO-K1 hDLL3 cells, 100 nM antibody
human DLL3 protein expressed on CHO-K1 recombinant cells (human DLL3 extracellular segment fused to EpCAM transmembrane and intracellular regions) (human), sequence (Q9NYJ7 other isoform, or with tags, fused parts or gaps limits assumed): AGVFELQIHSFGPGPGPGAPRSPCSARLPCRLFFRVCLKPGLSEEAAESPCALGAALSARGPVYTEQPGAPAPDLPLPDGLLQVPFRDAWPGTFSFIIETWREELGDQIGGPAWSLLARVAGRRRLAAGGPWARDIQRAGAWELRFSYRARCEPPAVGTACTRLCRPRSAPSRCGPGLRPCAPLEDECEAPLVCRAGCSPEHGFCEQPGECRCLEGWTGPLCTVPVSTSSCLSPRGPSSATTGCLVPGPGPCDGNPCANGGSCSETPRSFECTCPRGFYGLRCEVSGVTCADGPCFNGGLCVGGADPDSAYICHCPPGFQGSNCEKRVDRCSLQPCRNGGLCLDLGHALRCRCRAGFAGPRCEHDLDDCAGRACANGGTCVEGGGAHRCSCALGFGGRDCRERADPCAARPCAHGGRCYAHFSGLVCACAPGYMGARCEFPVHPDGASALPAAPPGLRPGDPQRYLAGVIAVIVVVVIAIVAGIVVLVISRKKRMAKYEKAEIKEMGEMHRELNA

[29] = biological target: human DLL3 protein expressed on CHO-K1 recombinant cells (human DLL3 extracellular segment fused to EpCAM transmembrane and intracellular regions) (human) (UniProt Q9NYJ7); experiment: FACS, CHO-K1 hDLL3 cells, 4 nM antibody
[30] = biological target: human delta-like ligand 3 (DLL3) on SHP77 cells (human) (UniProt Q9NYJ7); experiment: FACS on SHP77 cells
human delta-like ligand 3 (DLL3) on SHP77 cells (human), sequence (Q9NYJ7 27-618, stated change not applied): as the sequence (Q9NYJ7 27-618) above

[31] = biological target: human DLL3 protein expressed on CHO-K1 recombinant cells (human DLL3 extracellular segment fused to EpCAM transmembrane and intracellular regions) (human) (UniProt Q9NYJ7); experiment: FACS, CHO-K1 hDLL3 cells, 0.8 nM antibody
[32] = biological target: human DLL3 protein expressed on CHO-K1 recombinant cells (human DLL3 extracellular segment fused to EpCAM transmembrane and intracellular regions) (human) (UniProt Q9NYJ7); experiment: FACS, CHO-K1 hDLL3 cells, 0.16 nM antibody
[33] = biological target: human DLL3 protein expressed on CHO-K1 recombinant cells (human DLL3 extracellular segment fused to EpCAM transmembrane and intracellular regions) (human) (UniProt Q9NYJ7); experiment: FACS, CHO-K1 hDLL3 cells, 0.0064 nM antibody
[34] = biological target: human DLL3 protein expressed on CHO-K1 recombinant cells (human DLL3 extracellular segment fused to EpCAM transmembrane and intracellular regions) (human) (UniProt Q9NYJ7); experiment: FACS, CHO-K1 hDLL3 cells, 0.00128 nM antibody
[35] = biological target: human DLL3 protein expressed on CHO-K1 recombinant cells (human DLL3 extracellular segment fused to EpCAM transmembrane and intracellular regions) (human) (UniProt Q9NYJ7); experiment: FACS, CHO-K1 hDLL3 cells, 20 nM antibody
[36] = biological target: human DLL3 protein expressed on CHO-K1 recombinant cells (human DLL3 extracellular segment fused to EpCAM transmembrane and intracellular regions) (human) (UniProt Q9NYJ7); experiment: FACS, CHO-K1 hDLL3 cells, 0.032 nM antibody

mouse DLL3 on CHO-K1-mDLL3 cells (mouse), sequence (O88516 other isoform, or with tags, fused parts or gaps limits assumed): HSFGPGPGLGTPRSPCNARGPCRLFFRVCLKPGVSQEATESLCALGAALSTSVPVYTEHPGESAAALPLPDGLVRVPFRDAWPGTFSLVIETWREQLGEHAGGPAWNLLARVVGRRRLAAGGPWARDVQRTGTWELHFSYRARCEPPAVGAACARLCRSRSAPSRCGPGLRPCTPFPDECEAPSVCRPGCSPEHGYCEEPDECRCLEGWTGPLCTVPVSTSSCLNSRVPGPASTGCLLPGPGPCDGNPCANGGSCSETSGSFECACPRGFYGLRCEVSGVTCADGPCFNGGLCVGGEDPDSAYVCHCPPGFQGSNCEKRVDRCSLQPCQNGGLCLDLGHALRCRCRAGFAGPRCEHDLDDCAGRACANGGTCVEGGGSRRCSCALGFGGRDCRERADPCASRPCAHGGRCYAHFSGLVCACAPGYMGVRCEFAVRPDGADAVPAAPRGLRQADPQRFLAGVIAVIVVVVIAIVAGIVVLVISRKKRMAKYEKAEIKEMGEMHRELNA
monkey DLL3 on CHO-K1-cyno DLL3 cells (cynomolgus monkey), sequence (chain, as listed by the source limits assumed): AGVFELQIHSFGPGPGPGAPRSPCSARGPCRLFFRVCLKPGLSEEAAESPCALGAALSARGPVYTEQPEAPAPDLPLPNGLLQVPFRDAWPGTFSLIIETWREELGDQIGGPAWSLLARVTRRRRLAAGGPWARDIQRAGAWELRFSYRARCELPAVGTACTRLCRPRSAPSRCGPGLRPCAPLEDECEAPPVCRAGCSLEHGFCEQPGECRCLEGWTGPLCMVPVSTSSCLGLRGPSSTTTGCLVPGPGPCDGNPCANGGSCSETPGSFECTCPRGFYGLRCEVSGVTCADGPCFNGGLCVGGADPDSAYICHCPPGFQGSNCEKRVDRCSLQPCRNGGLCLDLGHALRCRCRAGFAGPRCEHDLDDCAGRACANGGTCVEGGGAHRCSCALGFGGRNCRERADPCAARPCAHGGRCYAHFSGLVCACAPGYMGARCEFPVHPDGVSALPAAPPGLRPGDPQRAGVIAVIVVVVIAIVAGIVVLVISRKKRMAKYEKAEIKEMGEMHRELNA

- MFI [1]: 190 MFI
- MFI [2]: 30000 MFI
- MFI [3]: 413 MFI
- MFI [4]: 669
- MFI [5]: 29600 MFI
- MFI [6]: 287 MFI
- MFI [7]: 24700 MFI
- Emax of OD450 nm binding value [8]: 0.06 OD450 nm
- Kd [9]: 0.304 nM
- koff [9]: 0.00175 s⁻¹
- kon [9]: 5.76e+06 M⁻¹ s⁻¹
- MFI [10]: 491 MFI
- MFI [11]: 123
- MFI [12]: 553 MFI
- MFI [13]: 709
- MFI [14]: 10600 MFI
- MFI [15]: 371
- MFI [16]: 738
- MFI [17]: 1450 MFI
- Emax of OD450 nm binding value [18]: 0.06 OD450 nm
- MFI [19]: 30000 MFI
- MFI [20]: 345 MFI
- MFI [21]: 3760 MFI
- MFI [22]: 796
- MFI [23]: 458 MFI
- MFI [24]: 872
- MFI [25]: 4020 MFI
- MFI [26]: 179
- MFI [27]: 269 MFI
B1: Hab009VL3aVH1-hFc (scFv, part only; not given: VL-VH linker and human IgG1 Fc, V domains shown, not shown: another chain or arm of the molecule; a dimerising Fc or GST; small tags and cut ends)
VL: DIVMTQSPLSLPVTPGEPASISCRASQTISDYLHWYLQKSHQSPQLLIKYASQSISGVPDRFSGSGSGTDFTLKISRVEAEDVGVYYCQQGHSFPLTFGQGTKLEIK
VH: EVQLVQSGAEVKKPGASVKVSCKASGYTFTSYWMHWVRQAPGQRLEWMGTIYPGNSDTRYNQKFKDRVTITADTSASTAYMELSSLRSEDTAVYYCTRSYDYGDLDYWGQGTTVTVSS

- MFI [1]: 113 MFI
- MFI [3]: 463 MFI
- MFI [28]: 19500 MFI
- MFI [4]: 670
- MFI [6]: 179 MFI
- Emax of OD450 nm binding value [8]: 0.05 OD450 nm
- Kd [9]: 0.112 nM
- koff [9]: 0.000371 s⁻¹
- kon [9]: 3.32e+06 M⁻¹ s⁻¹
- MFI [10]: 655 MFI
- MFI [11]: 130
- MFI [12]: 764 MFI
- MFI [13]: 831
- MFI [15]: 356
- MFI [16]: 1030
- MFI [29]: 14900 MFI
- Emax of OD450 nm binding value [18]: 0.05 OD450 nm
- MFI at 0.00128 nM [30]: 116 MFI
- MFI at 0.0064 nM [30]: 131 MFI
- MFI at 0.032 nM [30]: 183 MFI
- MFI at 0.16 nM [30]: 323 MFI
- MFI at 0.8 nM [30]: 541 MFI
- MFI at 4 nM [30]: 719 MFI
- MFI at 20 nM [30]: 876 MFI
- MFI at 100 nM [30]: 1140 MFI
- MFI [20]: 313 MFI
- MFI [31]: 11200 MFI
- MFI [32]: 3190 MFI
- MFI [33]: 270 MFI
- MFI [22]: 1170
- MFI [23]: 557 MFI
- MFI [24]: 1520
- MFI [34]: 164 MFI
- MFI [35]: 16300 MFI
- MFI [26]: 185
- MFI [27]: 125 MFI
- MFI [36]: 789 MFI
B2: Hab013VL2VH2a-hFc (scFv, part only; not given: scFv linker and human IgG1 Fc, V domains shown, not shown: another chain or arm of the molecule; a dimerising Fc or GST; small tags and cut ends)
VL: EIVLTQSPATLSLSPGERATLSCRASKSVSTSGFSYMHWYQQKPGQPPRLLIYLASNLESGIPARFSGSGSGTDFTLTISSLEPEDFAVYYCQHSRELPFTFGQGTKLEIK
VH: EVQLVQSGAEVKKPGSSVKVSCKASGYAFSNYWINWVRQAPGQGLEWMGQINPGDGDTIYNSKFKGRVTITADKSTSTAYMELSSLRSEDTAVYYCEREGRNYGDFAYWGQGTTVTVSS
